From article PMC6318328, “Structural insights into trans-histone regulation of H3K4 methylation by unique histone H4 binding of MLL3/4” (Nature Communications, 2019)

B1: MLL4 ePHD6: extended PHD6 domain of MLL4 (protein)
chain: VSCMQCGAASPGFHCEWQNSYTHCGPCASLVTCPICHAPYVEEDLLIQCRHCERWMHAGCESLFTEDDVEQAADEGFDCVSCQPYVVKPV
modifications: left off: GST, N-terminal, cleaved | His tag, N-terminal, cleaved
B2: MLL3 ePHD6: extended PHD6 domain of MLL3 (protein)
chain: VWCRHCGATSAGLRCEWQNNYTQCAPCASLSSCPVCYRNYREEDLILQCRQCDRWMHAVCQNLNTEEEVENVADIGFDCSMCRPYMPASN
modifications: left off: GST, N-terminal, cleaved | His tag, N-terminal, cleaved
B3: MLL3_C: C terminus of MLL3 with the catalytic SET domain (protein)
chain: DHTFRVGSLIFHTIGQLLPQQMQAFHSPKALFPVGYEASRLYWSTRYANRRCRYLCSIEEKDGRPVFVIRIVEQGHEDLVLSDISPKGVWDKILEPVACVRKKSEMLQLFPAYLKGEDLFGLTVSAVARIAESLPGVEACENYTFRYGRNPLMELPLAVNPTGCARSEPKMSAHVKRFVLRPHTLNSTSTSKSFQSTVTGELNAPYSKQFVHSKSSQYRKMKTEWKSNVYLARSRIQGLGLYAARDIEKHTMVIEYIGTIIRNEVANRKEKLYESQNRGVYMFRMDNDHVIDATLTGGPARYINHSCAPNCVAEVVTFERGHKIIISSSRRIQKGEELCYDYKFDFEDDQHKIPCHCGAVNCRKWMN
modifications: left off: FLAG, end not stated, kept
notes: C terminus of MLL3 with the catalytic SET domain

Columns and labels:
[1] = Gel filtration, oligomeric state in solution; assay type: physicochemical; settings: Superdex200 10/300 GL, 20 mM Tris pH 7.5, 150 mM NaCl, 50 μM ZnCl2, 1 mM DTT
Description: Supplementary Fig. 3 Superimposition of gel-filtration curves of PHD6 and ePHD6 domains of MLL3 and MLL4. Gel filtration chromatography of MLL3 ePHD6 (red), PHD6 (pink), MLL4 ePHD6 (brown), PHD6 (green) and protein molecular weight standards (blue, Bio-Rad). Samples were loaded to the Superdex200 10/300 GL (GE Healthcare) column in the buffer containing 20 mM Tris, pH 7.5, 150 mM NaCl, 50 μM ZnCl2,and1mMDTT. […]

[2] = tested on: recombinant nucleosomes (histone H3K4); assay: In vitro histone methyltransferase (HMT) assay of MLL3/MLL4 constructs; assay type: biochemical; settings: recombinant nucleosomes 0.5 μg, 2.5 μCi [3H]-SAM, 30 °C, 16 h, autoradiography (Fig. 3b, c)
Description: Mammalian expression plasmids encoding different fusions of MLL3 PHD and SET domains were subcloned into the pFLAG-CMV2 vector (Sigma-Aldrich, E7033) and were transiently expressed in HEK 293T cells (ATCC® ACS-4500™) by using Lipofectamine 2000 (ThermoFisher Scientific, 11668027) according to manufacturer’s protocol. Two days after transfection, cells were harvested and then lysed by mammalian lysis buffer (20 mM Tris-HCl, 137 mM NaCl, 1.5 mM MgCl2, 1 mM EDTA, 10% glycerol, 1% Triton X-100, 0.2 mM PMSF, 1 μg mL^−1 aprotinin, 2.5 μg mL^−1 leupeptin, and 1 μg mL^−1 pepstatin at pH 8.0). FLAG immunoprecipitation (FLAG IP) was performed in a similar way as described previously. In brief, total cell lysates were incubated with anti-FLAG M2 Affinity Gel (Sigma-Aldrich, A2220) in 4 °C for 5 h and were extensively washed with BC500 (20 mM Tris-HCl, 500 mM KCl, 1.5 mM MgCl2, 0.2 mM EDTA, 10% glycerol, 0.2 mM PMSF at pH 8.0). […]
HMT assay was performed according to a previously described method with minor modifications. […] The signals for HMT activity were detected by autoradiography. The input of the MLL3/4 proteins and nucleosomes were detected by mouse monoclonal anti-FLAG M2 (Sigma-Aldrich, F3165, 1:1000) and rabbit polyclonal anti-H3 antibody (Abcam, ab1791, 1:1000), respectively. […]

| Molecule | oligomeric state in solution [1] | nucleosomal methyltransferase activity [2] |
| --- | --- | --- |
| B1 | dimer in solution |  |
| B2 | monomer in solution |  |
| B3 |  | did not show any detectable nucleosomal methylation activity |
